Positions count from the first letter of the chain named.
B1: human Rock1 SBD (834–913), wild type (domain or fragment, UniProt Q13464 834-913, looked up)
chain: GNEGQMRELQDQLEAEQYFSTLYKTQVKELKEEIEEKNRENLKKIQELQNEKETLATQLDLAETKAESEQLARGLLEEQY
notes: PDB 4L2W holds the same limits with the SER mutation 884EKE886 to AAA; also called WT SBD; not shown: His6, N-terminal, cleaved
B2: human Rock1 SBD (834–913) with the surface entropy reduction mutation (SBD^SER) (domain or fragment, UniProt Q13464 834-913, looked up)
chain: B1 chain with E51A, K52A, E53A
notes: A selenomethionine form was used for phasing only; also called Rock1 SBD^SER; SER mutant; not shown: His6, N-terminal, cleaved
B3: His6-tagged human Rock1 834–913 (domain or fragment, UniProt Q13464 834-913, looked up)
chain: B1 chain
notes: PDB 4L2W holds the same limits with the SER mutation 884EKE886 to AAA; source: E. coli BL21(DE3) codon plus (RIPL), purified; not shown: His6, N-terminal, kept
B4: human Rock1 707–946, wild type (domain or fragment)
chain: EAKSVAMCEMEKKLKEEREAREKAENRVVQIEKQCSMLDVDLKQSQQKLEHLTGNKERMEDEVKNLTLQLEQESNKRLLLQNELKTQAFEADNLKGLEKQMKQEINTLLEAKRLLEFELAQLTKQYRGNEGQMRELQDQLEAEQYFSTLYKTQVKELKEEIEEKNRENLKKIQELQNEKETLATQLDLAETKAESEQLARGLLEEQYFELTQESKKAASRNRQEITDKDHTVSRLEEANS
B5: human Shrm2 SD2 domain (1427–1610), N-terminally labelled with Oregon Green 488 (domain or fragment, UniProt Q13796 1427-1610, looked up)
chain: SDLDHDLSVKKQELIESISRKLQVLREARESLLEDVQANTVLGAEVEAIVKGVCKPSEFDKFRMFIGDLDKVVNLLLSLSGRLARVENALNNLDDGASPGDRQSLLEKQRVLIQQHEDAKELKENLDRRERIVFDILANYLSEESLADYEHFVKMKSALIIEQRELEDKIHLGEEQLKCLLDSL
modifications: Oregon Green 488 (succinimidyl ester) on the N-terminus, labelling essentially 1:1
notes: Shroom2 (Shrm2), human, Shrm Domain 2 (SD2), residues 1427-1610; Same construct as m1, with the fluorophore; also called Shrm2 SD2-Oregon Green 488; Oregon-Green labeled human Shrm2 SD2 domain; source: E. coli BL21(DE3) Codon+(RILP), purified, then labelled
B6: human Rock1 707–946, 900ESE902 to alanine (domain or fragment, UniProt Q13464 707-946, looked up)
chain: B4 chain with E194A, S195A, E196A
notes: source: E. coli BL21(DE3) codon plus (RIPL), purified; not shown: His6, N-terminal, cleaved
B7: His6-tagged human Rock1 772–913 (domain or fragment, UniProt Q13464 772-913, looked up)
chain: LTLQLEQESNKRLLLQNELKTQAFEADNLKGLEKQMKQEINTLLEAKRLLEFELAQLTKQYRGNEGQMRELQDQLEAEQYFSTLYKTQVKELKEEIEEKNRENLKKIQELQNEKETLATQLDLAETKAESEQLARGLLEEQY
notes: source: E. coli BL21(DE3) codon plus (RIPL), purified; not shown: His6, N-terminal, kept
B8: human Shrm2 SD2 domain (1427–1610), untagged (domain or fragment, UniProt Q13796 1427-1610, looked up)
chain: B5 chain
notes: Shroom2 (Shrm2), human, Shrm Domain 2 (SD2), residues 1427-1610; Cloned into pET151/D-TOPO (His6 removable with TEV); called untagged in the pull-down; also called Shrm SD2; human Shroom2 SD2; source: E. coli BL21(DE3) Codon+(RILP), purified; not shown: His6, N-terminal, cleaved

How the values were obtained:
[1] = target: the molecule itself; test: cross-linking; 0.002% glutaraldehyde, 25 min, 26 µM protein; 25 mM HEPES pH 7.5, 8% glycerol, 500 mM NaCl, 5 mM β-ME; SDS-PAGE, Coomassie
[2] = target: T1, human Shrm2 SD2 domain (1427–1610), N-terminally labelled with Oregon Green 488 (human, UniProt Q13796 1427-1610, Oregon Green 488 (succinimidyl ester) on the N-terminus, labelling essentially 1:1); test: FP
T1 chain: B5 chain

[3] = target: B5; test: fluorescence polarisation; fluorescence anisotropy; 20 nM (legends: 50 nM) N-terminally Oregon Green 488-labelled Shrm2 SD2, increasing concentrations of Rock1 SBD; 20 mM Hepes pH 7.4, 100 mM NaCl, 5% glycerol; single binding model; settings: both partners purified
[4] = target: B8; test: pull-down; 25 µg purified His-tagged Rock1 fragment on nickel beads, 2x molar excess of untagged Shrm2 SD2, 10 min room temperature; 2% glycerol, 100 mM NaCl, 7 mM imidazole, 1 mM β-mercaptoethanol, 20 mM Tris pH 8.0; SDS-PAGE, Coomassie; settings: both partners purified
[5] = target: T2, human Rock1 707–946, wild type (human, UniProt Q13464 707-946); test: fluorescence polarisation; fluorescence anisotropy; 20 nM (legends: 50 nM) N-terminally Oregon Green 488-labelled Shrm2 SD2, increasing concentrations of Rock1 SBD; 20 mM Hepes pH 7.4, 100 mM NaCl, 5% glycerol; single binding model; settings: both partners purified
T2 construct: also called wild-type Rock1 SBD; not shown: His6, N-terminal, cleaved
T2 sequence (looked up): B4 chain

[6] = target: human Rock1 707–946, 900ESE902 to alanine (human, UniProt Q13464 707-946, 900ESE902 alanine substitutions); test: FP
[7] = target: T3, His6-tagged human Rock1 707–913 (human, UniProt Q13464 707-913); test: pull-down; 25 µg purified His-tagged Rock1 fragment on nickel beads, 2x molar excess of untagged Shrm2 SD2, 10 min room temperature; 2% glycerol, 100 mM NaCl, 7 mM imidazole, 1 mM β-mercaptoethanol, 20 mM Tris pH 8.0; SDS-PAGE, Coomassie; settings: both partners purified
T3 construct: source: E. coli BL21(DE3) codon plus (RIPL), purified; not shown: His6, N-terminal, kept
T3 sequence (looked up): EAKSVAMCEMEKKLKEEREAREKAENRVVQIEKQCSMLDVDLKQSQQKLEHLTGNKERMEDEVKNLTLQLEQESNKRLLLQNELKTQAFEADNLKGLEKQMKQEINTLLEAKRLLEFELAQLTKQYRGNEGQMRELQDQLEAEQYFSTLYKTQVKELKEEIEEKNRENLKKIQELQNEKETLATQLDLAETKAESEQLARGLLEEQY

[8] = target: T2, human Rock1 707–946, wild type; test: native gel or EMSA; 10 µM Rock1 707–946 (wild type or mutant) mixed with 10 µM human Shrm2 SD2, 20 min room temperature; 12% native PAGE at 4°C, Coomassie; settings: both partners purified
[9] = target: T4, human Rock1 707–946, 865EE866 to alanine (human, UniProt Q13464 707-946, 865EE866 alanine substitutions); test: as above; settings: both partners purified
T4 construct: source: E. coli BL21(DE3) codon plus (RIPL), purified; not shown: His6, N-terminal, cleaved
T4 sequence (looked up): B4 chain with E159A, E160A

[10] = target: B6; test: as above; settings: both partners purified
[11] = target: T5, human Rock1 707–946, SBD^SER variant (human, UniProt Q13464 707-946, triple alanine mutation, 884EKE886); test: as above; settings: both partners purified
T5 construct: source: E. coli BL21(DE3) codon plus (RIPL), purified; not shown: His6, N-terminal, cleaved
T5 sequence (looked up): B4 chain with E178A, K179A, E180A

## B1
[1]
  stoichiometry N: 2
[2]
  Kd: 5.3 µM
[3]
  binding result: binds

## B2
[1]
  stoichiometry N: 2

## B3
[4]
  binding result: binds

## B4
[2]
  Kd: 1.7 µM

## B5
[5]
  binding result: binds
[6]
  Kd: 9.3 µM

## B6
[3]
  fold decrease in binding affinity against wild type: ~5.5 fold

## B7
[4]
  binding result: binds

## B8
[7]
  binding result: binds
[8]
  binding result: binds
[9]
  binding result: binds
[10]
  binding result: binds
[11]
  binding result: binds
